Data from the supplement of paper PMC7877785.
± gives the uncertainty stated by the source.

Assay: self-splicing fitness, log relative to wild type (ln ratio); higher = more splicing; Tetrahymena group I intron in knt gene, E. coli kanamycin selection, DiMSum; sequences stand for … in CUCUCU…GGAGGGAAAAGUUAUCAGGCAUGCACCUGGUAGCUAGUCUUUAAACCAAUAGAUUGCAUCGGUUUAAAAGGCAAGACCGUCAAAUUGCGGGAAAGGGGUCAACAGCCGUUCAGUACCAAGUCUCAGGGGAAACUUUGAGAUGGCCUUGCAAAGGGUAUGGUAAUAAGCUGACGGACAUGGUCCUAACCACGCAGCCAAGUCCUAAGUCAACAGAUCUUCUGUUGAUAUGGAUGCAGUUCACAGACUAAAUGUCGGUCGGGGAAGAUGUAUUCUUCUCAUAAGAUAUAGUCGGACCUCUCCUUAAUGGGAGCUAGCGGAUGAAGUGAUGCAACACUGGAGCCGCUGGGAACUAAUUUGUAUGCGAAAGUAUAUUGAUUAGUUUUGGAGUACUCGUGGUCG
In short: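 DiMSum derived fitness as the error-weighted combination of fold changes across replicates, kanamycin versus no kanamycin, normalised to wild type. E. coli BL21(DE3) held the library, which randomised all eight P1ex-region intron nucleotides within the knt kanamycin-resistance gene on pET-22b(+). Six replicate transformations grew overnight at 37°C or 30°C on LB agar with or without 25 μg/mL kanamycin, also containing 100 μg/mL carbenicillin, 50 μM IPTG and 0.2% rhamnose, and pooled colonies were amplicon-sequenced on an Illumina HiSeq 2500.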

Sequence	self-splicing fitness (ln) (30 °C)	self-splicing fitness (ln) (37 °C)
AUCUAGCAAUAUUACGUUAA	-1.84 ± 0.23	-1.82 ± 0.34
AUAGAGCAAUAUUACGACUA	-0.25 ± 0.073	0.211 ± 0.088
UAUAAGCAAUAUUACGAACG	-0.609 ± 0.12	0.622 ± 0.15
AUCCAGCAAUAUUACGUUCC	-1.19 ± 0.13	-0.575 ± 0.25
AUGGAGCAAUAUUACGGGGC	-3.13 ± 0.18	-2.14 ± 0.19
ACUUAGCAAUAUUACGUCGC		-1.22 ± 0.26
CACGAGCAAUAUUACGGACG	-1.34 ± 0.075	-0.15 ± 0.1
UUUUAGCAAUAUUACGCUCC	-1.4 ± 0.33	-1.25 ± 0.45
CUUGAGCAAUAUUACGUUUA	-3.56 ± 0.26	-2.88 ± 0.28
CCACAGCAAUAUUACGUAGA	-2.28 ± 0.085	-1.5 ± 0.12
CUUUAGCAAUAUUACGAAGA		-2.43 ± 0.34
GCUGAGCAAUAUUACGAUAC	-1.15 ± 0.35	0.491 ± 0.22
CGGAAGCAAUAUUACGCGCG	-3.13 ± 0.33	-0.88 ± 0.24
CCCGAGCAAUAUUACGUCUA	-3.33 ± 0.2	-2.42 ± 0.22
CAGUAGCAAUAUUACGUACG	0.212 ± 0.13	0.0818 ± 0.15
ACUAAGCAAUAUUACGGUGC	-2.36 ± 0.11	-2.02 ± 0.15
AGAUAGCAAUAUUACGACUC	-0.641 ± 0.12	-0.0202 ± 0.21
GCUUAGCAAUAUUACGAAUG	-1.79 ± 0.1	-1.33 ± 0.13
GAACAGCAAUAUUACGUGAC	-1.63 ± 0.11	-0.482 ± 0.15
UGGCAGCAAUAUUACGUCAA	-1.16 ± 0.099	-0.518 ± 0.09
CGUUAGCAAUAUUACGCAGC	-2.48 ± 0.25	-3.07 ± 0.43
CGUAAGCAAUAUUACGCGGG	-2.35 ± 0.15	-2.72 ± 0.25
AGGGAGCAAUAUUACGCAAU		-1.7 ± 0.47
AGAUAGCAAUAUUACGUGGC	-3.18 ± 0.23	-2.86 ± 0.32
GUAAAGCAAUAUUACGUGGC	-3.42 ± 0.18	-2.48 ± 0.2

Sequence	self-splicing fitness (ln) (30 °C)	self-splicing fitness (ln) (37 °C)
GGGUAGCAAUAUUACGGAAA	-1.82 ± 0.34	0.517 ± 0.27
GCUUAGCAAUAUUACGUGCG	-1.23 ± 0.09	-0.6 ± 0.12
GUGAAGCAAUAUUACGAACA	-0.242 ± 0.076	0.0414 ± 0.11
CAGAAGCAAUAUUACGUAAG	-0.12 ± 0.057	0.772 ± 0.074
CCAAAGCAAUAUUACGGUAU	-3.41 ± 0.18	-2.08 ± 0.25
UAUCAGCAAUAUUACGAUGC	-3.83 ± 0.37	-1.82 ± 0.22
AAAAAGCAAUAUUACGCCCG	-0.481 ± 0.16	0.243 ± 0.23
ACCAAGCAAUAUUACGUUCC	-3.95 ± 0.16	-1.37 ± 0.12
CCAUAGCAAUAUUACGCACU	-3.41 ± 0.4	-3.05 ± 0.34
CUACAGCAAUAUUACGAUCU	-4.26 ± 0.37	-1.9 ± 0.45
CCGAAGCAAUAUUACGGGGU	-4.25 ± 0.22	-2.6 ± 0.21
AGGAAGCAAUAUUACGUCGG	-2.61 ± 0.15	-1.13 ± 0.15
UGUAAGCAAUAUUACGGCUC	-1.94 ± 0.19	-1.32 ± 0.29
GCUCAGCAAUAUUACGGGAU	-1.16 ± 0.097	-0.195 ± 0.11
GAUGAGCAAUAUUACGACUA	-1.79 ± 0.12	-0.933 ± 0.11
UAAUAGCAAUAUUACGUCGC	-3.86 ± 0.43	-1.71 ± 0.35
UUUAAGCAAUAUUACGCACG	-0.565 ± 0.16	-0.685 ± 0.22
CUGAAGCAAUAUUACGAGUA	-3.67 ± 0.28	-2.63 ± 0.3
UCACAGCAAUAUUACGGGAU	-3.45 ± 0.23	-2.36 ± 0.24
CUGCAGCAAUAUUACGGGCU	-4.01 ± 0.17	-1.81 ± 0.17
GGCUAGCAAUAUUACGUUUU	-0.476 ± 0.084	-0.0101 ± 0.093
ACUGAGCAAUAUUACGGAGC	-2.54 ± 0.23	-1.44 ± 0.28
UAGUAGCAAUAUUACGGCUG	-0.344 ± 0.061	-0.0985 ± 0.096
CUACAGCAAUAUUACGUGUC	-3.95 ± 0.14	-2.73 ± 0.15
GGAGAGCAAUAUUACGUAGU	-1.91 ± 0.19	-2.15 ± 0.3

Sequence	self-splicing fitness (ln) (30 °C)	self-splicing fitness (ln) (37 °C)
CUGGAGCAAUAUUACGGUGC	-3.49 ± 0.48	
GAACAGCAAUAUUACGACUU	-0.206 ± 0.072	0.314 ± 0.088
GGUUAGCAAUAUUACGUGCG	-0.0643 ± 0.066	0.0143 ± 0.078
ACACAGCAAUAUUACGGGGU	-3.14 ± 0.11	-1.42 ± 0.087
AAAGAGCAAUAUUACGACUA	-2.38 ± 0.3	-1.12 ± 0.25
UGUUAGCAAUAUUACGCGUA	-0.809 ± 0.12	-0.454 ± 0.13
ACAGAGCAAUAUUACGUACU	-2.96 ± 0.27	-2.14 ± 0.21
UGGAAGCAAUAUUACGCUGG	-1.74 ± 0.12	-1.26 ± 0.14
UCCAAGCAAUAUUACGGACA	-2.37 ± 0.11	-0.757 ± 0.084
UGUUAGCAAUAUUACGUCCG	-0.342 ± 0.15	0.113 ± 0.22
AAGGAGCAAUAUUACGGGCC	-2.98 ± 0.37	-2.27 ± 0.45
CGAAAGCAAUAUUACGCUGU	-3.2 ± 0.25	-2.75 ± 0.33
ACCGAGCAAUAUUACGGUCG	-3.22 ± 0.23	-1.68 ± 0.15
AGUUAGCAAUAUUACGAGCA	-0.518 ± 0.11	-0.169 ± 0.12
AGAAAGCAAUAUUACGGUCA	-0.253 ± 0.078	0.187 ± 0.091
CACGAGCAAUAUUACGUGUA	-3.1 ± 0.21	-2.88 ± 0.2
CCCAAGCAAUAUUACGUUCU	-3.36 ± 0.14	-3.5 ± 0.22
GUCUAGCAAUAUUACGGGAC		-1.65 ± 0.45
CGGCAGCAAUAUUACGAUUA	-2.86 ± 0.22	-2.17 ± 0.2
AGGAAGCAAUAUUACGAGUU	-3.11 ± 0.12	-1.03 ± 0.11
UGGAAGCAAUAUUACGAUCU	-0.0165 ± 0.12	-0.454 ± 0.15
ACCUAGCAAUAUUACGAGUU	-2.28 ± 0.087	-1.24 ± 0.1
GCUAAGCAAUAUUACGGGAU	-2.86 ± 0.1	-0.821 ± 0.081
CCGGAGCAAUAUUACGAAUU		-3.26 ± 0.3
CAUGAGCAAUAUUACGCAGU	-4.2 ± 0.39	-2.63 ± 0.23

Sequence	self-splicing fitness (ln) (30 °C)	self-splicing fitness (ln) (37 °C)
UGUGAGCAAUAUUACGGUCU	-3.01 ± 0.17	-2.19 ± 0.2
AUCAAGCAAUAUUACGACGA	-1.26 ± 0.095	-0.128 ± 0.11
CUAAAGCAAUAUUACGUCUU	-3.95 ± 0.22	-3.24 ± 0.3
AGUCAGCAAUAUUACGCGUC	-2.65 ± 0.23	-0.977 ± 0.23
UACGAGCAAUAUUACGGUAC	-3.89 ± 0.3	-2.76 ± 0.34
AGCGAGCAAUAUUACGUCAG	-4.3 ± 0.36	-2.58 ± 0.29
CUGAAGCAAUAUUACGUCGC	-3.18 ± 0.16	-1.55 ± 0.22
CUCUAGCAAUAUUACGUAAC	-3.47 ± 0.29	
GUAGAGCAAUAUUACGUUCA	-0.476 ± 0.1	-0.627 ± 0.11
GCCAAGCAAUAUUACGCGGC	-3.04 ± 0.22	-3.03 ± 0.43
GCAUAGCAAUAUUACGGAGA	-4.01 ± 0.37	-3.02 ± 0.33
UUAUAGCAAUAUUACGAAAA	-1.95 ± 0.39	-1.31 ± 0.28
GACAAGCAAUAUUACGACAG	-4.68 ± 0.22	-2.63 ± 0.14
AGAGAGCAAUAUUACGCGCA	-3 ± 0.36	-1.74 ± 0.14
UGGCAGCAAUAUUACGGUAU	-3.72 ± 0.24	-1.73 ± 0.17
CUUAAGCAAUAUUACGGUAA		-3.38 ± 0.37
AACAAGCAAUAUUACGGGGG	-2.94 ± 0.17	-1.86 ± 0.17
CCACAGCAAUAUUACGGCUG	-3.26 ± 0.15	-2.48 ± 0.15
GUUCAGCAAUAUUACGCCUA	-0.396 ± 0.15	0.127 ± 0.14
AUGGAGCAAUAUUACGCGCA	-1.66 ± 0.28	-0.77 ± 0.23
UGGGAGCAAUAUUACGUAAA	-1.97 ± 0.36	
CUGCAGCAAUAUUACGUGUG	-1.65 ± 0.043	-1.27 ± 0.06
GUGGAGCAAUAUUACGAAAU	-4.22 ± 0.36	-2.05 ± 0.29
